Measured values reported in patent publication US20250340643A1 (AstraZeneca / MedImmune, published 2025).
Read-outs that look alike come from different tables or passages of the source.

T1: CTLA4 on the cells of the reporter gene bioassay (human, UniProt P16410 36-223)
T1 sequence (looked up): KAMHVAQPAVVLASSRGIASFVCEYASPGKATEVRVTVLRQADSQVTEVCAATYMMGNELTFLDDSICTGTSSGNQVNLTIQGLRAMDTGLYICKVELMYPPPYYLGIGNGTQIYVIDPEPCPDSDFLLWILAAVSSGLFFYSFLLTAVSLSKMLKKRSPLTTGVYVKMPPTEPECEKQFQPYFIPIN


Key:
[1] = molecular target: T1, CTLA4 on the cells of the reporter gene …; assay: cell-based or functional assay
[2] = molecular target: T1, CTLA4 on the cells of the reporter gene …; assay: cell-based or functional assay; remark: listed apart in the source
[3] = molecular target: T2, recombinant FcRn (UniProt P55899 24-297; P61769 21-119, limits assumed); assay: SPR, recombinant FcRn immobilized on the sensor; relative to Reference Standard
T2 construct: also called Neonatal Fc Receptor
Description: A surface plasmon resonance binding assay was used to measure FcRn binding. This method is based on the ability of the test sample to bind to recombinant FcRn that has been immobilized on an SPR sensor surface. A reference flow cell was created using the same standard amine coupling procedure without the addition of FcRn.

Binder | Relative Potency (%) [1] [%] | Relative Potency (%) [2] [%] | Relative FcRn Binding (%) [3] [%]
Tremelimumab incubated in human serum at 37° C., week 0 (antibody, human IgG2, kappa, V domains shown, Asn-30 deamidated in 3.4% (peptide mapping)) VH: QVQLVESGGGVVQPGRSLRLSCAASGFTFSSYGMHWVRQAPGKGLEWVAVIWYDGSNKYYADSVKGRFTISRDNSKNTLYLQMNSLRAEDTAVYYCARDPRGATLYYYYYGMDVWGQGTTVTVSS VL: DIQMTQSPSSLSASVGDRVTITCRASQSINSYLDWYQQKPGKAPKLLIYAASSLQSGVPSRFSGSGSGTDFTLTISSLQPEDFATYYCQQYYSTPFTFGPGTKVEIKR | 106 | – | –
Tremelimumab incubated in human serum at 37° C., week 1 (antibody, human IgG2, kappa, V domains shown, Asn-30 deamidated in 11.1% (peptide mapping)) VH: QVQLVESGGGVVQPGRSLRLSCAASGFTFSSYGMHWVRQAPGKGLEWVAVIWYDGSNKYYADSVKGRFTISRDNSKNTLYLQMNSLRAEDTAVYYCARDPRGATLYYYYYGMDVWGQGTTVTVSS VL: DIQMTQSPSSLSASVGDRVTITCRASQSINSYLDWYQQKPGKAPKLLIYAASSLQSGVPSRFSGSGSGTDFTLTISSLQPEDFATYYCQQYYSTPFTFGPGTKVEIKR | 98 | – | –
Tremelimumab incubated in PBS at 37° C., week 1 (antibody, human IgG2, kappa, V domains shown, Asn-30 deamidated in 8.8% (peptide mapping)) VH: QVQLVESGGGVVQPGRSLRLSCAASGFTFSSYGMHWVRQAPGKGLEWVAVIWYDGSNKYYADSVKGRFTISRDNSKNTLYLQMNSLRAEDTAVYYCARDPRGATLYYYYYGMDVWGQGTTVTVSS VL: DIQMTQSPSSLSASVGDRVTITCRASQSINSYLDWYQQKPGKAPKLLIYAASSLQSGVPSRFSGSGSGTDFTLTISSLQPEDFATYYCQQYYSTPFTFGPGTKVEIKR | 96 | – | –
Tremelimumab incubated in PBS at 37° C., week 4 (antibody, human IgG2, kappa, V domains shown, Asn-30 deamidated in 37.7% (peptide mapping)) VH: QVQLVESGGGVVQPGRSLRLSCAASGFTFSSYGMHWVRQAPGKGLEWVAVIWYDGSNKYYADSVKGRFTISRDNSKNTLYLQMNSLRAEDTAVYYCARDPRGATLYYYYYGMDVWGQGTTVTVSS VL: DIQMTQSPSSLSASVGDRVTITCRASQSINSYLDWYQQKPGKAPKLLIYAASSLQSGVPSRFSGSGSGTDFTLTISSLQPEDFATYYCQQYYSTPFTFGPGTKVEIKR | 76 | – | –
Tremelimumab incubated in PBS at 37° C., week 5 (antibody, human IgG2, kappa, V domains shown, Asn-30 deamidated in 44.7% (peptide mapping)) VH: QVQLVESGGGVVQPGRSLRLSCAASGFTFSSYGMHWVRQAPGKGLEWVAVIWYDGSNKYYADSVKGRFTISRDNSKNTLYLQMNSLRAEDTAVYYCARDPRGATLYYYYYGMDVWGQGTTVTVSS VL: DIQMTQSPSSLSASVGDRVTITCRASQSINSYLDWYQQKPGKAPKLLIYAASSLQSGVPSRFSGSGSGTDFTLTISSLQPEDFATYYCQQYYSTPFTFGPGTKVEIKR | 76 | – | –
Tremelimumab incubated in PBS at 37° C., week 0 (antibody, human IgG2, kappa, V domains shown, Asn-30 deamidated in 2.2% (peptide mapping)) VH: QVQLVESGGGVVQPGRSLRLSCAASGFTFSSYGMHWVRQAPGKGLEWVAVIWYDGSNKYYADSVKGRFTISRDNSKNTLYLQMNSLRAEDTAVYYCARDPRGATLYYYYYGMDVWGQGTTVTVSS VL: DIQMTQSPSSLSASVGDRVTITCRASQSINSYLDWYQQKPGKAPKLLIYAASSLQSGVPSRFSGSGSGTDFTLTISSLQPEDFATYYCQQYYSTPFTFGPGTKVEIKR | 92 | – | –
Tremelimumab incubated in PBS at 37° C., week 3 (antibody, human IgG2, kappa, V domains shown, Asn-30 deamidated in 27.0% (peptide mapping)) VH: QVQLVESGGGVVQPGRSLRLSCAASGFTFSSYGMHWVRQAPGKGLEWVAVIWYDGSNKYYADSVKGRFTISRDNSKNTLYLQMNSLRAEDTAVYYCARDPRGATLYYYYYGMDVWGQGTTVTVSS VL: DIQMTQSPSSLSASVGDRVTITCRASQSINSYLDWYQQKPGKAPKLLIYAASSLQSGVPSRFSGSGSGTDFTLTISSLQPEDFATYYCQQYYSTPFTFGPGTKVEIKR | 93 | – | –
Tremelimumab incubated in PBS at 37° C., week 2 (antibody, human IgG2, kappa, V domains shown, Asn-30 deamidated in 18.5% (peptide mapping)) VH: QVQLVESGGGVVQPGRSLRLSCAASGFTFSSYGMHWVRQAPGKGLEWVAVIWYDGSNKYYADSVKGRFTISRDNSKNTLYLQMNSLRAEDTAVYYCARDPRGATLYYYYYGMDVWGQGTTVTVSS VL: DIQMTQSPSSLSASVGDRVTITCRASQSINSYLDWYQQKPGKAPKLLIYAASSLQSGVPSRFSGSGSGTDFTLTISSLQPEDFATYYCQQYYSTPFTFGPGTKVEIKR | 83 | – | –

The next lines start with the values.

Relative Potency (%) [1] [%] | Relative Potency (%) [2] [%] | Relative FcRn Binding (%) [3] [%] | Binder
76 | – | – | Tremelimumab incubated in human serum at 37° C., week 4 (antibody, human IgG2, kappa, V domains shown, Asn-30 deamidated in 34.8% (peptide mapping)) VH: QVQLVESGGGVVQPGRSLRLSCAASGFTFSSYGMHWVRQAPGKGLEWVAVIWYDGSNKYYADSVKGRFTISRDNSKNTLYLQMNSLRAEDTAVYYCARDPRGATLYYYYYGMDVWGQGTTVTVSS VL: DIQMTQSPSSLSASVGDRVTITCRASQSINSYLDWYQQKPGKAPKLLIYAASSLQSGVPSRFSGSGSGTDFTLTISSLQPEDFATYYCQQYYSTPFTFGPGTKVEIKR
91 | – | – | Tremelimumab incubated in human serum at 37° C., week 2 (antibody, human IgG2, kappa, V domains shown, Asn-30 deamidated in 22.9% (peptide mapping)) VH: QVQLVESGGGVVQPGRSLRLSCAASGFTFSSYGMHWVRQAPGKGLEWVAVIWYDGSNKYYADSVKGRFTISRDNSKNTLYLQMNSLRAEDTAVYYCARDPRGATLYYYYYGMDVWGQGTTVTVSS VL: DIQMTQSPSSLSASVGDRVTITCRASQSINSYLDWYQQKPGKAPKLLIYAASSLQSGVPSRFSGSGSGTDFTLTISSLQPEDFATYYCQQYYSTPFTFGPGTKVEIKR
82 | – | – | Tremelimumab incubated in human serum at 37° C., week 3 (antibody, human IgG2, kappa, V domains shown, Asn-30 deamidated in 33.9% (peptide mapping)) VH: QVQLVESGGGVVQPGRSLRLSCAASGFTFSSYGMHWVRQAPGKGLEWVAVIWYDGSNKYYADSVKGRFTISRDNSKNTLYLQMNSLRAEDTAVYYCARDPRGATLYYYYYGMDVWGQGTTVTVSS VL: DIQMTQSPSSLSASVGDRVTITCRASQSINSYLDWYQQKPGKAPKLLIYAASSLQSGVPSRFSGSGSGTDFTLTISSLQPEDFATYYCQQYYSTPFTFGPGTKVEIKR
80 | – | – | Tremelimumab incubated in human serum at 37° C., week 5 (antibody, human IgG2, kappa, V domains shown, Asn-30 deamidated in 37.7% (peptide mapping)) VH: QVQLVESGGGVVQPGRSLRLSCAASGFTFSSYGMHWVRQAPGKGLEWVAVIWYDGSNKYYADSVKGRFTISRDNSKNTLYLQMNSLRAEDTAVYYCARDPRGATLYYYYYGMDVWGQGTTVTVSS VL: DIQMTQSPSSLSASVGDRVTITCRASQSINSYLDWYQQKPGKAPKLLIYAASSLQSGVPSRFSGSGSGTDFTLTISSLQPEDFATYYCQQYYSTPFTFGPGTKVEIKR
– | 100 | 89 | Tremelimumab, chemical oxidation study (100 ppm H2O2), Control t = 0 (antibody, human IgG2, kappa, oxidation by peptide mapping: Met-256 1.2%, Met-362 0.9%, Met-401 1.4%, Met-432 0.2%) heavy: QVQLVESGGGVVQPGRSLRLSCAASGFTFSSYGMHWVRQAPGKGLEWVAVIWYDGSNKYYADSVKGRFTISRDNSKNTLYLQMNSLRAEDTAVYYCARDPRGATLYYYYYGMDVWGQGTTVTVSSASTKGPSVFPLAPCSRSTSESTAALGCLVKDYFPEPVTVSWNSGALTSGVHTFPAVLQSSGLYSLSSVVTVPSSNFGTQTYTCNVDHKPSNTKVDKTVERKCCVECPPCPAPPVAGPSVFLFPPKPKDTLMISRTPEVTCVVVDVSHEDPEVQFNWYVDGVEVHNAKTKPREEQFNSTFRVVSVLTVVHQDWLNGKEYKCKVSNKGLPAPIEKTISKTKGQPREPQVYTLPPSREEMTKNQVSLTCLVKGFYPSDIAVEWESNGQPENNYKTTPPMLDSDGSFFLYSKLTVDKSRWQQGNVFSCSVMHEALHNHYTQKSLSLSPGK light: not shown
– | 83 | 91 | Tremelimumab incubated with 100 ppm H2O2 for 25 hours (antibody, human IgG2, kappa, oxidation by peptide mapping: Met-256 35.5%, Met-362 9.7%, Met-401 28.7%, Met-432 7.8%) heavy: QVQLVESGGGVVQPGRSLRLSCAASGFTFSSYGMHWVRQAPGKGLEWVAVIWYDGSNKYYADSVKGRFTISRDNSKNTLYLQMNSLRAEDTAVYYCARDPRGATLYYYYYGMDVWGQGTTVTVSSASTKGPSVFPLAPCSRSTSESTAALGCLVKDYFPEPVTVSWNSGALTSGVHTFPAVLQSSGLYSLSSVVTVPSSNFGTQTYTCNVDHKPSNTKVDKTVERKCCVECPPCPAPPVAGPSVFLFPPKPKDTLMISRTPEVTCVVVDVSHEDPEVQFNWYVDGVEVHNAKTKPREEQFNSTFRVVSVLTVVHQDWLNGKEYKCKVSNKGLPAPIEKTISKTKGQPREPQVYTLPPSREEMTKNQVSLTCLVKGFYPSDIAVEWESNGQPENNYKTTPPMLDSDGSFFLYSKLTVDKSRWQQGNVFSCSVMHEALHNHYTQKSLSLSPGK light: not shown
– | 88 | 93 | Tremelimumab incubated with 100 ppm H2O2 for 8 hours (antibody, human IgG2, kappa, oxidation by peptide mapping: Met-256 13.4%, Met-362 3.9%, Met-401 13.3%, Met-432 2.4%) heavy: QVQLVESGGGVVQPGRSLRLSCAASGFTFSSYGMHWVRQAPGKGLEWVAVIWYDGSNKYYADSVKGRFTISRDNSKNTLYLQMNSLRAEDTAVYYCARDPRGATLYYYYYGMDVWGQGTTVTVSSASTKGPSVFPLAPCSRSTSESTAALGCLVKDYFPEPVTVSWNSGALTSGVHTFPAVLQSSGLYSLSSVVTVPSSNFGTQTYTCNVDHKPSNTKVDKTVERKCCVECPPCPAPPVAGPSVFLFPPKPKDTLMISRTPEVTCVVVDVSHEDPEVQFNWYVDGVEVHNAKTKPREEQFNSTFRVVSVLTVVHQDWLNGKEYKCKVSNKGLPAPIEKTISKTKGQPREPQVYTLPPSREEMTKNQVSLTCLVKGFYPSDIAVEWESNGQPENNYKTTPPMLDSDGSFFLYSKLTVDKSRWQQGNVFSCSVMHEALHNHYTQKSLSLSPGK light: not shown
– | 88 | 37 | Tremelimumab incubated with 100 ppm H2O2 for 2 days (antibody, human IgG2, kappa, oxidation by peptide mapping: Met-256 55.8%, Met-362 17.8%, Met-401 44.6%, Met-432 20.7%) heavy: QVQLVESGGGVVQPGRSLRLSCAASGFTFSSYGMHWVRQAPGKGLEWVAVIWYDGSNKYYADSVKGRFTISRDNSKNTLYLQMNSLRAEDTAVYYCARDPRGATLYYYYYGMDVWGQGTTVTVSSASTKGPSVFPLAPCSRSTSESTAALGCLVKDYFPEPVTVSWNSGALTSGVHTFPAVLQSSGLYSLSSVVTVPSSNFGTQTYTCNVDHKPSNTKVDKTVERKCCVECPPCPAPPVAGPSVFLFPPKPKDTLMISRTPEVTCVVVDVSHEDPEVQFNWYVDGVEVHNAKTKPREEQFNSTFRVVSVLTVVHQDWLNGKEYKCKVSNKGLPAPIEKTISKTKGQPREPQVYTLPPSREEMTKNQVSLTCLVKGFYPSDIAVEWESNGQPENNYKTTPPMLDSDGSFFLYSKLTVDKSRWQQGNVFSCSVMHEALHNHYTQKSLSLSPGK light: not shown
